Assay results: article PMC6859894 (Nature, 2019)
Read-outs that look alike come from different tables or passages of the source.

How the values were obtained:
[1] = target: the molecule itself; assay: cryo-EM structure
[2] = target: the molecule itself; assay: cryo-EM structure; remark: listed apart in the source

B1: chicken STING (Gallus gallus), full-length, C-terminal Flag tag (natural protein, chicken (Gallus gallus), UniProt E1C7U0 1-379, looked up)
chain: MPQDPSTRSSPARLLIPEPRAGRARHAACVLLAVCFVVLFLSGEPLAPIIRSVCTQLAALQLGVLLKGCCCLAEEIFHLHSRHHGSLWQVLCSCFPPRWYLALLLVGGSAYLDPPEDNGHSPRLALTLSCLCQLLVLALGLQKLSAVEVSELTESSKKNVAHGLAWSYYIGYLKVVLPRLKECMEELSRTNPMLRAHRDTWKLHILVPLGCDIWDDLEKADSNIQYLADLPETILTRAGIKRRVYKHSLYVIRDKDNKLRPCVLEFASPLQTLCAMSQDDCAAFSREQRLEQARLFYRSLRDILGSSKECAGLYRLIAYEEPAEPESHFLSGLILWHLQQQQREEYMVQEELPLGTSSVELSLQVSSSDLPQPLRSDCP
stoichiometry N [1]: 2
ratio of dimer to higher-order oligomers in the micrographs [2]: ~4 dimer : higher-order oligomers
stoichiometry N [2]: 4
